Test results: patent publication US20160002326A1 (AbbVie / Abbott, published 2016)
Where a chain is given by its changes, count along the chain named. In names and notes the source's numbering stands.

What was measured:
rat TNF = biological target: T1, rat TNF (rat, UniProt P16599 80-235); experiment: Biacore SPR
T1 construct: also called rodent TNF (rat); rat rTNF
T1 sequence (looked up): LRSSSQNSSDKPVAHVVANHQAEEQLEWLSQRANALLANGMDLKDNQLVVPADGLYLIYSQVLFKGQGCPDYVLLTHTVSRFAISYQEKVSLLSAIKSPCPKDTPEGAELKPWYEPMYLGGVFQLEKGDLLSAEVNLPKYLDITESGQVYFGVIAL

rabbit TNF = biological target: T2, rabbit TNF (rabbit, UniProt P04924 80-235, limits assumed); experiment: Biacore SPR
T2 construct: also called rabbit rTNF
T2 sequence (looked up): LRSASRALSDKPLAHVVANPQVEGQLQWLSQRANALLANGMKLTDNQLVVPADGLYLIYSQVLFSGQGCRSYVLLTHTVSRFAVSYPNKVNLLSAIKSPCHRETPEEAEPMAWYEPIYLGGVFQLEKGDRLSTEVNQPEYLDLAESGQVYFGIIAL

mouse TNF = biological target: T3, mouse TNF (mouse, UniProt P06804 80-235); experiment: Biacore SPR
T3 construct: also called murine TNF; rodent TNF (mouse)
T3 sequence (looked up): T1 sequence (looked up) with A22V, I58V, S91N, I96V, M117I, L130Q, I143F, T144A

human TNF-α [1] = biological target: T4, human TNF-α (human, UniProt P01375 77-233); experiment: Biacore SPR, recombinant antigen, mean of 3 experiments; exponent as printed
T4 construct: also called hTNF-α; hTNF

rat IL-17 = biological target: T5, rat IL-17 (rat, UniProt Q61453 18-150, limits assumed); experiment: Biacore SPR, 3 experiments; unit not printed in Table 10
T5 construct: also called rodent IL-17 (rat)
T5 sequence (looked up): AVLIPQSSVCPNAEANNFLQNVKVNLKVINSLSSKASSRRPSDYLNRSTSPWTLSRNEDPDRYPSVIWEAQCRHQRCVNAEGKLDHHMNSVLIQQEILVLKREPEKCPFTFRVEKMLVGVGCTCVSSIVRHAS

mouse IL-17 = biological target: T6, mouse IL-17 (mouse, UniProt Q62386 26-158, limits assumed); experiment: as above
T6 construct: also called mouse IL-17A; rodent IL-17 (mouse)
T6 sequence (looked up): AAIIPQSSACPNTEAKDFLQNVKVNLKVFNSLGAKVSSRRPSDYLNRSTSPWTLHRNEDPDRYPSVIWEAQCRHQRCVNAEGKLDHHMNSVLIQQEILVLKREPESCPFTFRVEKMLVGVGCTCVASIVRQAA

[2] = biological target: T7, monkey (Rhesus/Cynomolgus) IL-17 (monkey (Rhesus/Cynomolgus), UniProt F6T3G5 24-155); experiment: as above
T7 construct: also called monkey IL-17; monkey rIL-17
T7 sequence: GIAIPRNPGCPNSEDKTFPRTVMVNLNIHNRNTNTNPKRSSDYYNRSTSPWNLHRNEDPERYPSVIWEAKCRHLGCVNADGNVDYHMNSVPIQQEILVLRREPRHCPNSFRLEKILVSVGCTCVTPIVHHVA

[3] = biological target: T8, monkey (Rhesus/Cynomolgus) TNF (monkey (Rhesus/Cynomolgus), UniProt P48094 77-233); experiment: as above
T8 construct: also called monkey TNF; monkey rTNF

GITR ligand = biological target: T9, GITR ligand (UniProt Q9UNG2 52-177); experiment: direct ELISA
T9 sequence (looked up): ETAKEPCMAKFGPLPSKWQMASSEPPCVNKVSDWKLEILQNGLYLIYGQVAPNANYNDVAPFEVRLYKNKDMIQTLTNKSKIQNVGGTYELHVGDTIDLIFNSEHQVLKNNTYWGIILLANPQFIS

APRIL = biological target: T10, APRIL (UniProt O75888 105-250); experiment: direct ELISA
T10 sequence (looked up): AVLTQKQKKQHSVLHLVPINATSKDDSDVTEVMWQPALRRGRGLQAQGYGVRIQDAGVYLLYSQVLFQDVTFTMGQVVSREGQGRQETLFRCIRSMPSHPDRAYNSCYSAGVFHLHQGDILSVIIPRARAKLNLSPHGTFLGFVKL

TWEAK = biological target: T11, TWEAK (UniProt O43508 94-249, limits assumed); experiment: direct ELISA
T11 sequence (looked up): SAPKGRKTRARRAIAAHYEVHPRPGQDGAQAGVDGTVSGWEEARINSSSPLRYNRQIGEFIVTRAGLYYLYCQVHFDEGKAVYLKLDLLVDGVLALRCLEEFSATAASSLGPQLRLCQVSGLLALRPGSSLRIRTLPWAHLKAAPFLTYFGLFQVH

TL1A = biological target: T12, TL1A (UniProt O95150 72-251); experiment: direct ELISA
T12 sequence (looked up): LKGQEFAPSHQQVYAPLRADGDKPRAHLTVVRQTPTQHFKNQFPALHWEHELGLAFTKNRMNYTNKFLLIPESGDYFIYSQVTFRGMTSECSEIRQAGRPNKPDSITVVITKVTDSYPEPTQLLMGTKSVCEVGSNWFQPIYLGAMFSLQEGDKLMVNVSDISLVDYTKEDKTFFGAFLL

lymphotoxin a = biological target: T13, lymphotoxin a (UniProt P01374 35-205); experiment: direct ELISA
T13 construct: also called lymphotoxin alpha
T13 sequence (looked up): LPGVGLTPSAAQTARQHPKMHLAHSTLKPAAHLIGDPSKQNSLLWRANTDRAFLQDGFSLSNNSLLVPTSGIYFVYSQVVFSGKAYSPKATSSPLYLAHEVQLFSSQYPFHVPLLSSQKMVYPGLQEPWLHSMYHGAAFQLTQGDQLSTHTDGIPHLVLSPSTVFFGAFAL

human TNF-α [4] = biological target: T4, human TNF-α; experiment: Biacore SPR, 3 experiments; same value as Table 7; unit not printed in Table 10
From the text: (§1) The apparent association rate (ka) and dissociation rate (kd) were derived and used to calculate the overall equilibrium dissociation constant (KD) for the interaction.

human IL-17A/A homodimer = biological target: T14, human IL-17A/A homodimer (human, UniProt Q16552 24-155); experiment: as above
T14 construct: also called hIL-17A/A
T14 sequence: T7 sequence with A3T, T17N, V77I, R104P
From the text: as §1

T4 sequence (P01375 77-233 limits assumed): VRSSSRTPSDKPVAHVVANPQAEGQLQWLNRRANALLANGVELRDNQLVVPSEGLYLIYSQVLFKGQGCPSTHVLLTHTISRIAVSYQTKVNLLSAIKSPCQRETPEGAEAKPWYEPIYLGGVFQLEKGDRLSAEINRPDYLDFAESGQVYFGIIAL
T8 sequence (P48094 77-233 limits assumed): as the sequence (P01375 77-233 limits assumed) above, with R44T, T72N, R138L counted along it

B1: ABBV-257 anti-human TNF and IL-17 DVD-Ig binding protein (bispecific antibody, human IgG1, kappa, L234A L235A)
heavy: EVQLVQSGAEVKKPGASVKVSCKASGYTFANYGIIWVRQAPGQGLEWMGWINTYTGKPTYAQKFQGRVTMTTDTSTSTAYMELSSLRSEDTAVYYCARKLFTTMDVTDNAMDYWGQGTTVTVSSGGGGSGGGGSEVQLVQSGAEVKKPGSSVKVSCKASGYTFTDYEIHWVRQAPGQGLEWMGVNDPESGGTFYNQKFDGRVTLTADESTSTAYMELSSLRSEDTAVYYCTRYSKWDSFDGMDYWGQGTTVTVSSASTKGPSVFPLAPSSKSTSGGTAALGCLVKDYFPEPVTVSWNSGALTSGVHTFPAVLQSSGLYSLSSVVTVPSSSLGTQTYICNVNHKPSNTKVDKKVEPKSCDKTHTCPPCPAPEAAGGPSVFLFPPKPKDQLMISRTPEVTCVVVDVSHEDPEVKFNWYVDGVEVHNAKTKPREEQYNSTYRVVSVLTVLHQDWLNGKEYKCKVSNKALPAPIEKTISKAKGQPREPQVYTLPPSREEMTKNQVSLTCLVKGFYPSDIAVEWESNGQPENNYKTTPPVLDSDGSFFLYSKLTVDKSRWQQGNVFSCSVLHEALHNHYTQKSLSLSPGK
light: DIQMTQSPSSLSASVGDRVTITCRASQDISQYLNWYQQKPGKAPKLLIYYTSRLQSGVPSRFSGSGSGTDFTLTISSLQPEDFATYFCQQGNTWPPTFGQGTKLEIKRGGSGGGGSGDIQMTQSPSSLSASVGDRVTITCRASSGIISYIDWFQQKPGKAPKRLIYATFDLASGVPSRFSGSGSGTDYTLTISSLQPEDFATYYCRQVGSYPETFGQGTKLEIKRTVAAPSVFIFPPSDEQLKSGTASVVCLLNNFYPREAKVQWKVDNALQSGNSQESVTEQDSKDSTYSLSSTLTLSKADYEKHKVYACEVTHQGLSSPVTKSFNRGEC
modifications: N-linked glycans on the heavy chain at the asparagine commonly modified on IgG1 antibodies (fucosylated biantennary oligosaccharides with 0, 1 or 2 galactose residues)
notes: It says the constant region carries L234A, L235A and also T250Q and M428L; also called Anti-IL-17/TNF DVD-Ig Protein
Rat TNF
  binding result: no binding (tested: at concentrations up to 500 nM of rTNF)
Rabbit TNF
  binding result: no binding (tested: at concentrations up to 500 nM of rTNF)
Mouse TNF
  binding result: no binding (tested: at concentrations up to 500 nM of rTNF)
Human TNF-α [1]
  koff: 1.6e-05 s⁻¹
Rat IL-17
  Kd: < 0.035 nM
Mouse IL-17
  Kd: 0.072 nM
[2]
  Kd: 0.011 nM
[3]
  Kd: 0.024 nM
GITR ligand
  binding result: no binding
APRIL
  binding result: no binding
TWEAK
  binding result: no binding
TL1A
  binding result: no binding
Lymphotoxin a
  binding result: no binding
Human TNF-α [4]
  Kd: 0.0049 nM
Human IL-17A/A homodimer
  Kd: 0.003 nM
